In PMC6784373, “Development of a Label-Free Electrochemical Aptasensor for the Detection of Tau381 and its Preliminary Application in AD and Non-AD Patients’ Sera”:

Molecular target: tau381 (1N3R as printed) (human, UniProt P10636-4 1-381)
Test: electrochemical aptasensor (DPV, EIS); aptamer immobilized on Au NP/thionin/carboxyl graphene GCE; linear 1.0-100 pM, LOD 0.70 pM (sensor values, not Kd); 0.1 M PBS pH 7.0, 5 uM aptamer for immobilization, 30 min tau381 incubation, DPV -0.6 to 0.2 V; EIS in 10 mM [Fe(CN)6]3-/4-; temperature not stated
Details: protein: commercial

Sequence of tau381 (1N3R as printed) (P10636 other isoform, or with tags, fused parts or gaps): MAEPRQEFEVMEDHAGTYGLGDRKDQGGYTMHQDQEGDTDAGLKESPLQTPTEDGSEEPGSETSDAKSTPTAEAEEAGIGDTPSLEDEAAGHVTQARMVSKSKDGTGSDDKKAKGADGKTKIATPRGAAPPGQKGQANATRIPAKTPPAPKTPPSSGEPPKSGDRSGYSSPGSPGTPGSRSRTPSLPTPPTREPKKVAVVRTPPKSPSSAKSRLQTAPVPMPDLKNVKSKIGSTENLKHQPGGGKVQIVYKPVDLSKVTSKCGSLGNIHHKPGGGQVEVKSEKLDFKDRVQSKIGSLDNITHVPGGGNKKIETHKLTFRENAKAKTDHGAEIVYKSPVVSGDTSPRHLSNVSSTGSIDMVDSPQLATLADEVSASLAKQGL

B1: tau381 aptamer (5'-amino) (ssDNA)
DNA: GCGGAGCGTGGCAGG
modifications: 5'-H2N
B1: binds.
